Data reported in paper PMC6541444 (Science translational medicine, 2019).

Target: T1, recombinant mouse IL-2Ra (Sino Biological) (mouse, UniProt P01590 22-236)
T1 sequence (looked up): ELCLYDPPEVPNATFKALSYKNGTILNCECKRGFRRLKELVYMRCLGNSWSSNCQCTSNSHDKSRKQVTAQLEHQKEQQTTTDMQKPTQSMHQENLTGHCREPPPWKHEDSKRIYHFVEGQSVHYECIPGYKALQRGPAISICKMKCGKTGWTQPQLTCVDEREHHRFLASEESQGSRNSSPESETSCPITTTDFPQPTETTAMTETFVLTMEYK
Assay: ELISA

binding result: binds
B1: mouse IL-2 (recombinant, unmodified) (ligand, UniProt P04351 21-169, looked up)
chain: APTSSSTSSSTAEAQQQQQQQQQQQQHLEQLLMDLQELLSRMENYRNLKLPRMLTFKFYLPKQATELKDLQCLEDELGPLRHVLDLTQSKSFQLEDAENFISNIRVTVVKLKGSDNTFECQFDDESATVVDFLRRWIAFCQSIISTSPQ
